# T1: outer-membrane usher FimD (Escherichia coli, UniProt P30130 46-878)
# T1 sequence: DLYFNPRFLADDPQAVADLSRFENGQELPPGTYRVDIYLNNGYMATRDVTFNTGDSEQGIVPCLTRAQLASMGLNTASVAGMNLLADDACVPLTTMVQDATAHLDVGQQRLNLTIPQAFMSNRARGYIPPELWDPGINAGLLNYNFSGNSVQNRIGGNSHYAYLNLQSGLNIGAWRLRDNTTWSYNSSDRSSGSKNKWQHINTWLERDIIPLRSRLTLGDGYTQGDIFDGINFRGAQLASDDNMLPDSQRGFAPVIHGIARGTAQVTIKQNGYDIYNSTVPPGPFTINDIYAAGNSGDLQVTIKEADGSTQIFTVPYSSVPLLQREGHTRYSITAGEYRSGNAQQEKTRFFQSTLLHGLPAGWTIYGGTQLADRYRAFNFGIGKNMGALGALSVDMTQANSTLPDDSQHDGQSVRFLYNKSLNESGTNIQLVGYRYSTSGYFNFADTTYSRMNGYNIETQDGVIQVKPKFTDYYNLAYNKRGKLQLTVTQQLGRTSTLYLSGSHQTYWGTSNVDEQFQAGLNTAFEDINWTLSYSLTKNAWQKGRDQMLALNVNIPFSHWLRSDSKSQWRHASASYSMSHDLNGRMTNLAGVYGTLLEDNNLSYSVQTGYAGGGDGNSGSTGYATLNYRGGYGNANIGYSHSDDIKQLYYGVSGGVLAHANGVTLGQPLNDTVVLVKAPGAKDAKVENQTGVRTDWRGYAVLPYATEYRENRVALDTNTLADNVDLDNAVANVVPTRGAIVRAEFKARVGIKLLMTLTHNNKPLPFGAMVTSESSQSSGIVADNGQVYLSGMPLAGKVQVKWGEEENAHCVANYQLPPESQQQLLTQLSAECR
# How the values were obtained:
# [1] = target: T2, adhesin FimH (wild type) (Escherichia coli, UniProt P08191 22-300); assay: cryo-EM structure; FimD–FimCH complex, second class of particles in the same purified sample and dataset; ~3.5 Å; map fits PDB 3RFZ; conditions: both partners purified
# T2 construct: also called FimHWT; tip adhesin
# [2] = target: T1, outer-membrane usher FimD; assay: cryo-EM structure; conditions: both partners purified
# T2 sequence (P08191 22-300): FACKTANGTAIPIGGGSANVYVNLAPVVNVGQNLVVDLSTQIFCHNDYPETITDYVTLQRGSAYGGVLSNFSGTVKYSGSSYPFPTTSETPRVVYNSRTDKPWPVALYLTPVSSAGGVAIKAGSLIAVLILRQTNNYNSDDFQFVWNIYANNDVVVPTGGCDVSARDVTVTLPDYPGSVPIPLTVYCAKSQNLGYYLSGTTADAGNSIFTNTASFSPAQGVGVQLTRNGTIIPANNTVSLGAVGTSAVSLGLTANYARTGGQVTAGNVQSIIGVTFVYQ
binder,measurement,setting,value
"periplasmic chaperone FimC with a C-terminal polyhistidine tag (natural protein, also called FimChis; FimCHis; not shown: polyhistidine, C-terminal, kept) GVALGATRVIYPAGQKQEQLAVTNNDENSTYLIQSWVENADGVKDGRFIVTPPLFAMKGKKENTLRILDATNNQLPQDRESLFWMNVKAIPSMDKSKLTENTLQLAIISRIKLYYRPAKLALPPDQAAEKLRFRRSANSLTLINPTPYYLTVTELNAGTRVLENALVPPMGESTVKLPSDAGSNITYRTINDYGALTPKMTGVME",binding result,[1],binds
same,binding result,[2],binds

# From publication PMC11459180, “Structural basis for adhesin secretion by the outer-membrane usher in type 1 pili” (Proceedings of the National Academy of Sciences of the …, 2024)
